Results: US20060240570A1
Positions of bridges follow the written chain, without caps; N, C: chain ends. No end group written: not given here.

What was measured:
[1] = molecular target: unrelated control antibody; test: phage ELISA, 10^8 phagemid, wells coated with control mAb
[2] = molecular target: unrelated control antibody; test: phage ELISA, 10^9 phagemid, wells coated with control mAb
[3] = molecular target: unrelated control antibody; test: phage ELISA, 10^10 phagemid, wells coated with control mAb

## CSLFYLWDQDRCS (disulfide 1-12 (inferred); also: displayed on phagemid) [phagemid CS1-2p, displayed peptide …]
[1]
  ELISA (absorbance units) (absorbance units): 0.188
[2]
  ELISA (absorbance units) (absorbance units): 0.199
[3]
  ELISA (absorbance units) (absorbance units): 0.228

## CSGLYPWDMFRCS (disulfide 1-12 (inferred); also: displayed on phagemid) [phagemid CS1-9p, displayed peptide …]
[1]
  ELISA (absorbance units) (absorbance units): 0.209
[2]
  ELISA (absorbance units) (absorbance units): 0.204
[3]
  ELISA (absorbance units) (absorbance units): 0.213

## CSFRYLWDQDRCS (disulfide 1-12 (inferred); also: displayed on phagemid) [phagemid CS1-6p, displayed peptide …]
[1]
  ELISA (absorbance units) (absorbance units): 0.173
[2]
  ELISA (absorbance units) (absorbance units): 0.172
[3]
  ELISA (absorbance units) (absorbance units): 0.203

## CSGLYPWDYFMCS (disulfide 1-12 (inferred); also: displayed on phagemid) [phagemid CS1-29p, displayed peptide …]
[1]
  ELISA (absorbance units) (absorbance units): 0.125
[2]
  ELISA (absorbance units) (absorbance units): 0.147
[3]
  ELISA (absorbance units) (absorbance units): 0.148

## CSFRYQWDMFRCS (disulfide 1-12 (inferred); also: displayed on phagemid) [phagemid CS1-11p, displayed peptide …]
[1]
  ELISA (absorbance units) (absorbance units): 0.252
[2]
  ELISA (absorbance units) (absorbance units): 0.258
[3]
  ELISA (absorbance units) (absorbance units): 0.242

B1: phagemid CS1-31p, displayed peptide … (peptide)
peptide: CSFFYSLCYCWCS
modifications: disulfide (positions not given here); also: disulfide pairing among 4 Cys not given here, displayed on phagemid
[1]
  ELISA (absorbance units) (absorbance units): 0.116
[2]
  ELISA (absorbance units) (absorbance units): 0.118
[3]
  ELISA (absorbance units) (absorbance units): 0.125
